{"source": "paper PMC9371921", "about": "“Strand annealing and motor driven activities of SMARCAL1 and ZRANB3 are stimulated by RAD51 and the paralog complex” (Nucleic Acids Research, 2022)", "binders": {"B1": {"name": "MBP-RAD51 (natural protein, human, UniProt Q06609 1-339, looked up)", "chain": "MAMQMQLEANADTSVEEESFGPQPISRLEQCGINANDVKKLEEAGFHTVEAVAYAPKKELINIKGISEAKADKILAEAAKLVPMGFTTATEFHQRRSEIIQITTGSKELDKLLQGGIETGSITEMFGEFRTGKTQICHTLAVTCQLPIDRGGGEGKAMYIDTEGTFRPERLLAVAERYGLSGSDVLDNVAYARAFNTDHQTQLLYQASAMMVESRYALLIVDSATALYRTDYSGRGELSARQMHLARFLRMLLRLADEFGVAVVITNQVVAQVDGAAMFAADPKKPIGGNIIAHASTTRLYLRKGRGETRICKIYDSPCLPEAEAMFAINADGVGDAKD", "notes": "In the pull-downs the MBP tag was kept; the RAD51 of the DNA annealing assays was the same construct with the MBP cut off by PreScission protease and purified on HiTrap Q; not shown: MBP, N-terminal, kept"}}, "key": {"[1]": {"biological_target": "T1, FLAG-ZRANB3 (human, UniProt Q5FWF4 1-1079)", "T1 construct": "also called ZRANB3 WT", "T1 sequence (looked up)": "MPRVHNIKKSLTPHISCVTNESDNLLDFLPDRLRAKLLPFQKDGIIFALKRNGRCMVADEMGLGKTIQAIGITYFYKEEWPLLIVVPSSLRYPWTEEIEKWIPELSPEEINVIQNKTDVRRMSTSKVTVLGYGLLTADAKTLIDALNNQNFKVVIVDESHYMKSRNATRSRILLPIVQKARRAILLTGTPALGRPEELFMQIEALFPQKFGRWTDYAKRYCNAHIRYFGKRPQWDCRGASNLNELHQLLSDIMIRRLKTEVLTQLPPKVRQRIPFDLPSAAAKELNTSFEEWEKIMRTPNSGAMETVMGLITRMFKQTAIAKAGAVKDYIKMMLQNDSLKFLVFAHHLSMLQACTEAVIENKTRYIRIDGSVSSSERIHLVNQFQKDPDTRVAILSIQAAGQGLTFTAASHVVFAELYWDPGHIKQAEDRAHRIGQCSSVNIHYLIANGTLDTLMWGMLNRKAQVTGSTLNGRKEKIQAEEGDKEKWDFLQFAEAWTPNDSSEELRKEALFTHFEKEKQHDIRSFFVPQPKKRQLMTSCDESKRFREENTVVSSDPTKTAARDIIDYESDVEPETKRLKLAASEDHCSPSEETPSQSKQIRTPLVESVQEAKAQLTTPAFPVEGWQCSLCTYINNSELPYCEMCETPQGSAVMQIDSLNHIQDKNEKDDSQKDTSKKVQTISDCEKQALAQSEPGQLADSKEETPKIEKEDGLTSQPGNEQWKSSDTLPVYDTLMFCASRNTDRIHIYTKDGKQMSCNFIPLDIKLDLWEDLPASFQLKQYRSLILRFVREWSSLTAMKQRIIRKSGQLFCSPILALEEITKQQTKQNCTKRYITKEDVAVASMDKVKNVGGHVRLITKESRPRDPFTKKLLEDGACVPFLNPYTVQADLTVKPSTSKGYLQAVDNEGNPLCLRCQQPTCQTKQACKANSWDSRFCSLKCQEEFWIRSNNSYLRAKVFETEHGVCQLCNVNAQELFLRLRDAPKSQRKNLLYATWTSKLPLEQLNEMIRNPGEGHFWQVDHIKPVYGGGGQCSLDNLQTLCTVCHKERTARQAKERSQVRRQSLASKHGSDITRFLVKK", "test": "pull-down; MBP-RAD51 (bait) from bacterial soluble extract bound to amylose resin and washed; purified FLAG-SMARCAL1, FLAG-ZRANB3 or FLAG-BCDX2 (1 μg, prey) in 150 μl IP buffer (25 mM Tris-HCl pH 7.5, 100 mM NaCl, 3 mM EDTA, 0.5 mM DTT, BSA, 10% glycerol), 1 h at 4°C; eluted with maltose; Western blot with anti-MBP and anti-FLAG", "conditions": "both partners purified"}, "[2]": {"biological_target": "T2, FLAG-SMARCAL1 (human, UniProt Q9NZC9 1-954)", "T2 construct": "also called SMARCAL1-WT; SMARCAL1 wild type", "T2 sequence (looked up)": "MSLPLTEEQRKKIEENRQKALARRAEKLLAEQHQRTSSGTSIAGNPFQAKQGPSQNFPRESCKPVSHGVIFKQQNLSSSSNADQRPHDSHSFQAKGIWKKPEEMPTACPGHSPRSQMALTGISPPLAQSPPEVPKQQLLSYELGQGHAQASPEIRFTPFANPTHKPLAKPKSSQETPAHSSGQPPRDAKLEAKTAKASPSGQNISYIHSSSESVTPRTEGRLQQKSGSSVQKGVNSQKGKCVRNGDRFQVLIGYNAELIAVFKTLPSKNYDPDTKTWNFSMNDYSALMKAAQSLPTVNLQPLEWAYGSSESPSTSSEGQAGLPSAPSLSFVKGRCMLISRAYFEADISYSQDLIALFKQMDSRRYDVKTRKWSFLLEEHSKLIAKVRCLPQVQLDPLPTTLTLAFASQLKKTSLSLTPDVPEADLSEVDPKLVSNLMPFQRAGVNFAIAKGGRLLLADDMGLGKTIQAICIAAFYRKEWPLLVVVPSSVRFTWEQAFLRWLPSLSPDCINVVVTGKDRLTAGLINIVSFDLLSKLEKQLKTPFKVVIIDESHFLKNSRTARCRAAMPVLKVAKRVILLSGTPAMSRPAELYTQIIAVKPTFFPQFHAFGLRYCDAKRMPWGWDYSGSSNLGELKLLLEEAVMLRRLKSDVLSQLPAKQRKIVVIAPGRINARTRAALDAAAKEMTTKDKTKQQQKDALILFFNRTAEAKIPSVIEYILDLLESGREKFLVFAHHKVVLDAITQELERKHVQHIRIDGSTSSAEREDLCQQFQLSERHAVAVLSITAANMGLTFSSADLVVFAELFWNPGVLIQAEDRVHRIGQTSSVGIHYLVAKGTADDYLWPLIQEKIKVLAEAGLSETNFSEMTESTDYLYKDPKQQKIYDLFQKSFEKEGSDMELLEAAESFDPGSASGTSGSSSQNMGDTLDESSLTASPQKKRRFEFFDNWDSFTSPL", "test": "pull-down; MBP-RAD51 (bait) from bacterial soluble extract bound to amylose resin and washed; purified FLAG-SMARCAL1, FLAG-ZRANB3 or FLAG-BCDX2 (1 μg, prey) in 150 μl IP buffer (25 mM Tris-HCl pH 7.5, 100 mM NaCl, 3 mM EDTA, 0.5 mM DTT, BSA, 10% glycerol), 1 h at 4°C; eluted with maltose; Western blot with anti-MBP and anti-FLAG", "conditions": "both partners purified"}}, "data": [{"binder": "B1", "values": [{"measurement": "binding result", "setting": "[1]", "value": "binds"}, {"measurement": "binding result", "setting": "[2]", "value": "binds"}]}]}
